This note sets out measurements from paper PMC5187519.

Test [1] concerns the target 30S–IF3DL complex (UniProt P0A707). In words: other fluorescence titration; equilibrium; preformed 30S–IF3DL (0.5 µM) titrated with IF1 (0.1-2 µM); intramolecular FRET of IF3DL; HAKM10 buffer; one-site binding fit.
The target is the same in test [2]. In words: stopped-flow fluorescence; pre-steady state; preformed 30S–IF3DL (0.1 µM) mixed with a 10-fold molar excess of IF1 (1 µM); intramolecular FRET of IF3DL; TAKM10 buffer, 25 °C; single exponential fit; apparent rate constant.
For test [3], the target named is 30S subunit (minor ribosomal subunit). In words: stopped-flow fluorescence; pre-steady state; 30S subunits (0.1 µM) mixed with equimolar IF3DL; intramolecular FRET of IF3DL; TAKM10 buffer, 25 °C; fit with two exponential terms; apparent rate constants.

B1: Initiation factor IF1 (natural protein)
chain: MAKEDNIEMQGTVLETLPNTMFRVELENGHVVTAHISGKMRKNYIRILTGDKVTVELTPYDLSKGRIVFRSR
One may read the Kd as the free concentration of one partner at which half of the binding sites on the other are occupied at equilibrium, for simple one-to-one binding. The low end stands for higher affinity, the high end for lower affinity. In test [1], B1 registered a Kd of 100 nM. Further, the kapp (IF1-dependent FRET change at 1 µM IF1; a step after the initial binding) in test [2] was 0.26 s⁻¹.

B2: IF3DL (double-labeled IF3; IF3 E166C with Atto-540Q at the CTD and Atto-488 at the NTD) (natural protein)
chain: MKGGKRVQTARPNRINGEIRAQEVRLTGLEGEQLGIVSLREALEKAEEAGVDLVEISPNAEPPVCRIMDYGKFLYEKSKSSKEQKKKQKVIQVKEIKFRPGTDEGDYQVKLRSLIRFLEEGDKAKITLRFRGREMAHQQIGMEVLNRVKDDLQELAVVESFPTKICGRQMIMVLAPKKKQ
modifications: Atto-540Q maleimide on the recombinant cysteine 166 (E166C, CTD); Atto-488 maleimide on the natural cysteine 65 (NTD)
Take B2: the kapp1 (initial bimolecular encounter, 0.1 µM each) in test [3] amounted to 16 s⁻¹.
